{
  "source": "patent US11840563B2",
  "about": "“Methods of treating cancer by administering inhibitory RNA molecules targeting protease serine 2 (PRSS2) expression” (Children's Medical Center Corporation, priority 2017, dated 2023)",
  "key": {"Tsp-1 [1]": {"tested_on": "Tsp-1", "test": "Western blot of Tsp-1 in lung fibroblasts treated with LN4 CM alone or with STI or Rac1 inhibitor", "assay_type": "cell-based", "details": "lung fibroblasts (W138 cells), co-treatment with LN4 conditioned media", "text": "FIG. 11. Western blot analysis of Tsp-1 and β-actin expression in lung fibroblasts that were untreated (−) or treated with LN4 CM alone or in combination with STI.\nFIG. 12. Western blot analysis of Tsp-1 and β-actin expression in lung fibroblasts that were untreated (−) or treated with LN4 CM alone or in combination with Rac1 inhibitor.\nAttention was then turned to the mechanism by which PC3M-LN4 cells repress Tsp-1 in the tumor microenvironment. In doing so, LN4 conditioned media (CM) was fractionated over a Cu^2+/heparin sepharose column with increasing concentrations of NaCl. The eluted fractions were used to treat lung fibroblasts and Tsp-1 induction was analyzed by western blot. […] By analyzing the protein content of the eluted fractions by tandem liquid chromatography/mass spectrometry (LC/MS), a protein was identified that was present in the active fractions of LN4 CM, but not present in the adjacent fractions or the fractions eluted with the same NaCl concentrations from PC3 CM. The identified protein was the serine protease PRSS2. […] Finally, the signaling pathway emanating from LRP1 that was mediating the PRSS2-induced repression of Tsp-1 was sought to be delineated. […]"}, "Tsp-1 [2]": {"tested_on": "Tsp-1", "test": "Western blot of Tsp-1/p53 in prostate fibroblasts treated with PC3 conditioned media with or without RAP or PKC inhibitor", "assay_type": "cell-based", "details": "co-treatment with inhibitor", "text": "FIGS. 6A-6B. Western blot analysis of: (FIG. 6A) Tsp-1 and β-actin expression in prostate fibroblasts that were untreated (−) or treated with conditioned media from PC3 cells alone or in combination with RAP, and (FIG. 6B) Tsp-1, p53 and β-actin expression in prostate fibroblasts that were untreated (−) or treated with conditioned media from PC3 cells alone or in combination with the PKC inhibitor Go 6983 (PKCi).\nThus, in order to determine how prosaposin was able to stimulate the expression of Tsp-1 and p53 in tumor-associated fibroblasts, prostate fibroblasts were treated with PC3-conditioned media in the presence and absence of Receptor Associate Protein (RAP), a competitive inhibitor or LRP1 binding. […] To determine whether prosaposin-mediated stimulation of Tsp-1 utilized this pathway, fibroblasts were treated with CM from PC3 cells in the presence and absence of the PKC inhibitor Gö 6983. […] Thus, it is believed that Prosaposin functions via binding to LRP1."}, "Tsp-1 [3]": {"tested_on": "Tsp-1", "test": "Western blot of Tsp-1 in lung fibroblasts treated with psap peptide alone or with rhRAP or Y27632", "assay_type": "cell-based", "details": "co-treatment with peptide, rhRAP 25 or 50 μg", "method": "FIGS. 8A-8B. Western blot analysis of Tsp-1 and β-actin expression in lung fibroblasts, which were (FIG. 8A) untreated (−) or treated with psap peptide alone or in combination with 25 or 50 μg of rhRAP, and (FIG. 8B) untreated (−) or treated with psap peptide alone or with Y27632.\nIn order to delineate the pathway leading from LRP1 to Tsp-1 stimulation by prosaposin, two pathways that have been reported to be stimulated by LRP1 under different conditions were chosen to be examined: Rho and Rac."}, "PRSS2": {"target": "PRSS2 (Homo sapiens, UniProt P07478)", "sequence (P07478 16-247 limits assumed)": "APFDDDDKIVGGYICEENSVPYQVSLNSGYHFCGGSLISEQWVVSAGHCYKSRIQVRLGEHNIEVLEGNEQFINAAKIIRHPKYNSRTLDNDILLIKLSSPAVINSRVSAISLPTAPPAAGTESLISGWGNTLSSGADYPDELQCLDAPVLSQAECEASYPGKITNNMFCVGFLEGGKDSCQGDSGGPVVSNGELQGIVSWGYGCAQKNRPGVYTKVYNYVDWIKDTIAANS", "test": "Co-immunoprecipitation of LRP1 peptides with PRSS2", "assay_type": "binding", "method": "(§1) FIGS. 16A-16B. Co-immunoprecipitation of LRP1 peptides with PSAP (FIG. 16A) or PRSS2 (FIG. 16B).\n(§2) To map the binding sites on LRP1 that binds to prosaposin (PSAP) and/or PRSS2, peptides derived from binding domain I of LRP1 (SEQ ID NOs: 3 and 7-18) were tested for their ability to co-immunoprecipitate with PSAP or PRSS2."}, "prosaposin (PSAP)": {"target": "T1, prosaposin (PSAP) (Homo sapiens, UniProt P07602)", "T1 sequence (P07602 60-524)": "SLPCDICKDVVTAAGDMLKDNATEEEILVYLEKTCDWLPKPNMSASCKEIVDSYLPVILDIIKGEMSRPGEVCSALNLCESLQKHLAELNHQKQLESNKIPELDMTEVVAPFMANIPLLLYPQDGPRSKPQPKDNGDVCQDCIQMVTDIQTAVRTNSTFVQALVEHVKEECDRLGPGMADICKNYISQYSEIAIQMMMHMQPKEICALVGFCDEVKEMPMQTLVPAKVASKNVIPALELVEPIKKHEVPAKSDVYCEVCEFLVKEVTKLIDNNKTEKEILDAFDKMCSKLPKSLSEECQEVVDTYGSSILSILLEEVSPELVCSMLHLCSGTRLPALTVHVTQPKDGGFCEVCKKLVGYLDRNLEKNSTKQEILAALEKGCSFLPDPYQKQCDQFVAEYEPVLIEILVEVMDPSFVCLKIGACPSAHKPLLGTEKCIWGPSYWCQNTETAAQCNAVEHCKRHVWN", "test": "Co-immunoprecipitation of LRP1 peptides with PSAP", "assay_type": "binding", "method": "as §1, §2"}},
  "data": [
    {"molecule": "CCN(CC)CCCC(C)Nc1nc(C)cc(Nc2ccc3nc(C)cc(N)c3c2)n1", "note": "(racemic) [Rac1 inhibitor, reference compound]", "values": [
      {"measurement": "effect on repression of Tsp-1 by LN4 CM", "setting": "Tsp-1 [1]", "result": "Tsp-1 levels were restored to basal levels"}
    ]},
    {"molecule": "COc1ccc2c(c1)c(C1=C(c3c[nH]c4ccccc34)C(=O)NC1=O)cn2CCCN(C)C", "note": "[Gö 6983]", "values": [
      {"measurement": "stimulation of Tsp-1 by PC3-conditioned media", "setting": "Tsp-1 [2]", "result": "abolished the stimulation"},
      {"measurement": "stimulation of p53 by PC3-conditioned media", "setting": "Tsp-1 [2]", "result": "abolished the stimulation"}
    ]},
    {"molecule": "C[C@@H](N)[C@H]1CC[C@H](C(=O)Nc2ccncc2)CC1", "note": "[Peptide Y27632, Y27632, reference compound]", "values": [
      {"measurement": "effect on stimulation of Tsp-1 by the psap peptide", "setting": "Tsp-1 [3]", "result": "completely abrogated"}
    ]},
    {"molecule": "FICGCVEGYLLQPDNRSCKAKN [Peptide 13]", "values": [
      {"measurement": "binding to PRSS2 (co-immunoprecipitation)", "setting": "PRSS2; listed as peptide 13", "result": "bind to both PRSS2 and PSAP"},
      {"measurement": "binding to PSAP (co-immunoprecipitation)", "setting": "prosaposin (PSAP); listed as peptide 13", "result": "bind to both PRSS2 and PSAP"}
    ]},
    {"molecule": "YGTCSQLCTNTDGSFICGCVEGYLL [Peptide 12]", "values": [
      {"measurement": "binding to PRSS2 (co-immunoprecipitation)", "setting": "PRSS2; listed as peptide 12", "result": "bind to both PRSS2 and PSAP"},
      {"measurement": "binding to PSAP (co-immunoprecipitation)", "setting": "prosaposin (PSAP); listed as peptide 12", "result": "bind to both PRSS2 and PSAP"}
    ]},
    {"molecule": "STI: serine protease inhibitor able to inhibit all members of the trypsin family (protein, UniProt P01070 25-205, looked up) Trypsin inhibitor A: DFVLDNEGNPLENGGTYYILSDITAFGGIRAAPTGNERCPLTVVQSRNELDKGIGTIISSPYRIRFIAEGHPLSLKFDSFAVIMLCVGIPTEWSVVEDLPEGPAVKIGENKDAMDGWFRLERVSDDEFNNYKLVFCPQQAEDDKCGDIGISIDHDDGTRRLVVSKNKPLVVQFQKLDKESL", "values": [
      {"measurement": "effect on repression of Tsp-1 by LN4 CM", "setting": "Tsp-1 [1]", "result": "completely abrogated the repression of Tsp-1"}
    ]},
    {"molecule": "RAP: Receptor Associate Protein (RAP), a competitive inhibitor or LRP1 binding (protein, UniProt P30533 35-357, looked up) Alpha-2-macroglobulin …: YSREKNQPKPSPKRESGEEFRMEKLNQLWEKAQRLHLPPVRLAELHADLKIQERDELAWKKLKLDGLDEDGEKEARLIRNLNVILAKYGLDGKKDARQVTSNSLSGTQEDGLDDPRLEKLWHKAKTSGKFSGEELDKLWREFLHHKEKVHEYNVLLETLSRTEEIHENVISPSDLSDIKGSVLHSRHTELKEKLRSINQGLDRLRRVSHQGYSTEAEFEEPRVIDLWDLAQSANLTDKELEAFREELKHFEAKIEKHNHYQKQLEIAHEKLRHAESVGDGERVSRSREKHALLEGRTKELGYTVKKHLQDLSGRISRARHNEL", "values": [
      {"measurement": "effect on stimulation of Tsp-1 by the psap peptide", "setting": "Tsp-1 [3]", "result": "blocked the stimulation of Tsp-1 in a dose-dependent fashion"},
      {"measurement": "stimulation of Tsp-1 by PC3-conditioned media", "setting": "Tsp-1 [2]", "result": "no longer stimulated Tsp-1"}
    ]}
  ]
}
